Reference: the supplement of paper PMC10065799, “High-throughput profiling of sequence recognition by tyrosine kinases and SH2 domains using bacterial peptide display” (eLife, 2023)

Experiments:
SHP2-C SH2 = experiment: SH2 binding enrichment of the phosphorylated peptide, bacterial display (enrichment ratio); higher = better substrate or ligand; peptides without Tyr show the background
Grb2 SH2 = Grb2 SH2 (UniProt P62993); experiment: as above
c-Src SH2 = experiment: as above
FGFR1 = FGFR1 (UniProt P11362); experiment: phosphorylation enrichment, bacterial display (enrichment ratio); higher = better substrate or ligand; peptides without Tyr show the background
EPHB1 = EPHB1 (UniProt P54762); experiment: as above
Hck = Hck (UniProt P08631); experiment: as above
Fyn = Fyn (UniProt P06241); experiment: as above
Fes = Fes (UniProt P07332); experiment: as above
MERTK = MERTK (UniProt Q12866); experiment: as above
c-Src = experiment: as above
FGFR3 = FGFR3 (UniProt P22607); experiment: as above
AncSZ = experiment: as above
EPHB2 = EPHB2 (UniProt P29323); experiment: as above
Jak2 = Jak2 (UniProt O60674); experiment: as above
c-Abl (mouse) = experiment: as above
Fer (mouse) = experiment: as above
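For SH2 binding enrichment of the phosphorylated peptide, bacterial display in this document: peptide library displayed on the E. coli surface as eCPX fusions, selected cells deep-sequenced, score is each peptide's frequency after selection divided by its frequency in the input.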
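For phosphorylation enrichment, bacterial display in this document: 11-residue human phosphosite peptides and single-mutation variants displayed on the E. coli surface, counted by deep sequencing, each peptide's frequency after selection divided by its frequency in the unselected input library; frequency after pTyr selection over input frequency; kinase dosed for 20-30% of maximal phosphorylation in three min.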

Chain of MERTK (Q12866 whole entry, looked up): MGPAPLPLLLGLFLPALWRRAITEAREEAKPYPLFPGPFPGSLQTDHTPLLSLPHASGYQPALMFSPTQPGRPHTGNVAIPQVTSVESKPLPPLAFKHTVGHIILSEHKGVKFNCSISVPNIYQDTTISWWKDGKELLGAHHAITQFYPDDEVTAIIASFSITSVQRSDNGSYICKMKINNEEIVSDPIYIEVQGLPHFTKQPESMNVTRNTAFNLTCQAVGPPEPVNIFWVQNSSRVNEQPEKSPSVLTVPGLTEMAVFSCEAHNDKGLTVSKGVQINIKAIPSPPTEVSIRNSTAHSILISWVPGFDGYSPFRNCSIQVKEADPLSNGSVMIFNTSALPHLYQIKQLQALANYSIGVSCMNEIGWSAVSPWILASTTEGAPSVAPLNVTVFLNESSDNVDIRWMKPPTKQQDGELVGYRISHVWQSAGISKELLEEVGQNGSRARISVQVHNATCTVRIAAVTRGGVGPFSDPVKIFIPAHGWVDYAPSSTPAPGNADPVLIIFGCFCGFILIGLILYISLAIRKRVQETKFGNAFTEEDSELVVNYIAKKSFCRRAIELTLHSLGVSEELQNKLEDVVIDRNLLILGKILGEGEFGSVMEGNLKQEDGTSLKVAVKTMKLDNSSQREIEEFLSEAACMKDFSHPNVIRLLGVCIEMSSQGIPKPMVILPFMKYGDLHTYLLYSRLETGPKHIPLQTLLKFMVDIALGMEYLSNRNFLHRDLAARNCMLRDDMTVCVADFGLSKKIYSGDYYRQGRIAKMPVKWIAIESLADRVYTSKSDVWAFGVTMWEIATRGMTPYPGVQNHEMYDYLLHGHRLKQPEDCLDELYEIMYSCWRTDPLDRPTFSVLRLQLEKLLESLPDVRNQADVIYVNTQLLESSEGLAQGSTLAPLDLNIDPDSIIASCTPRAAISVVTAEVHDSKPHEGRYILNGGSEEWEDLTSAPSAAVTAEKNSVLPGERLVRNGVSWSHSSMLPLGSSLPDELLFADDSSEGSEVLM
Chain of Fyn (P06241 whole entry, looked up): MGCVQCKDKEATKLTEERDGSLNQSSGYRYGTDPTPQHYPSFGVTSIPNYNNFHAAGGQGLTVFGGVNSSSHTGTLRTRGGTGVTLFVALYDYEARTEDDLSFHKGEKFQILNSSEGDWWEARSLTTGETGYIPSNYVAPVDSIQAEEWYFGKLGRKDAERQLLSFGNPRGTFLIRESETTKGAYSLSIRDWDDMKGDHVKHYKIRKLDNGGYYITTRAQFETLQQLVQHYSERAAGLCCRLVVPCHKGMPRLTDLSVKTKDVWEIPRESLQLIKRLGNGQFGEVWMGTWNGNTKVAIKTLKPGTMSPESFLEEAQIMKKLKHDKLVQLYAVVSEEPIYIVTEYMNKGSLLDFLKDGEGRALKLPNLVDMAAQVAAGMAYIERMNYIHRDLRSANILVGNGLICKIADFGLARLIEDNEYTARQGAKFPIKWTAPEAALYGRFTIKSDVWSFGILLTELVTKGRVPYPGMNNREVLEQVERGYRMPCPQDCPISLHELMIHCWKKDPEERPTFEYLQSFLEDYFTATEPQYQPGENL
Chain of EPHB1 (P54762 whole entry, looked up): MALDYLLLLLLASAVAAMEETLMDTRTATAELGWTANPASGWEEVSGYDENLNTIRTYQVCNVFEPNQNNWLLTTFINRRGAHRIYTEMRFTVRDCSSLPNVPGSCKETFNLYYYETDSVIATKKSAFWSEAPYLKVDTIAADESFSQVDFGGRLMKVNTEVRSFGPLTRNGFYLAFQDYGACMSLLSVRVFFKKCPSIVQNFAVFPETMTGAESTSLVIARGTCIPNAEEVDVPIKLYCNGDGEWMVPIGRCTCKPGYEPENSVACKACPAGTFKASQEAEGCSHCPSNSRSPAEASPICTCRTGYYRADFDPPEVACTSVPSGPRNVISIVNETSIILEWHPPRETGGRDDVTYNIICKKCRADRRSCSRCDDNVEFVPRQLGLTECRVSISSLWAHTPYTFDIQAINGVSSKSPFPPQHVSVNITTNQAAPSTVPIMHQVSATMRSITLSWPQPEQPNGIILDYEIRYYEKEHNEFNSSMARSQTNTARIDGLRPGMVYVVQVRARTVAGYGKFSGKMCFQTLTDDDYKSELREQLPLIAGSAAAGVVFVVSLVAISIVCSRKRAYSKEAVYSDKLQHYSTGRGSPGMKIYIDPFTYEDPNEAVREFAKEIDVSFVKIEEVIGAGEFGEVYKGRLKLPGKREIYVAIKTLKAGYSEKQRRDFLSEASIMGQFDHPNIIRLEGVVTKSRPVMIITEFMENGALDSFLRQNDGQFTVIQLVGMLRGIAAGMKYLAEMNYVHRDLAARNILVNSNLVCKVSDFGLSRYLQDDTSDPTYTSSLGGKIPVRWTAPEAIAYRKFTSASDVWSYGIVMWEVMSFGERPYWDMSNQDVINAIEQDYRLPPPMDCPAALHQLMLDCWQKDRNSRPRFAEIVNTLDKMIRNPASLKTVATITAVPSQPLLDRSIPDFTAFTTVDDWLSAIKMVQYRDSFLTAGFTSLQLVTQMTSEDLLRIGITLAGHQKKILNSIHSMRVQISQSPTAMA
Chain of Jak2 (O60674 whole entry, looked up): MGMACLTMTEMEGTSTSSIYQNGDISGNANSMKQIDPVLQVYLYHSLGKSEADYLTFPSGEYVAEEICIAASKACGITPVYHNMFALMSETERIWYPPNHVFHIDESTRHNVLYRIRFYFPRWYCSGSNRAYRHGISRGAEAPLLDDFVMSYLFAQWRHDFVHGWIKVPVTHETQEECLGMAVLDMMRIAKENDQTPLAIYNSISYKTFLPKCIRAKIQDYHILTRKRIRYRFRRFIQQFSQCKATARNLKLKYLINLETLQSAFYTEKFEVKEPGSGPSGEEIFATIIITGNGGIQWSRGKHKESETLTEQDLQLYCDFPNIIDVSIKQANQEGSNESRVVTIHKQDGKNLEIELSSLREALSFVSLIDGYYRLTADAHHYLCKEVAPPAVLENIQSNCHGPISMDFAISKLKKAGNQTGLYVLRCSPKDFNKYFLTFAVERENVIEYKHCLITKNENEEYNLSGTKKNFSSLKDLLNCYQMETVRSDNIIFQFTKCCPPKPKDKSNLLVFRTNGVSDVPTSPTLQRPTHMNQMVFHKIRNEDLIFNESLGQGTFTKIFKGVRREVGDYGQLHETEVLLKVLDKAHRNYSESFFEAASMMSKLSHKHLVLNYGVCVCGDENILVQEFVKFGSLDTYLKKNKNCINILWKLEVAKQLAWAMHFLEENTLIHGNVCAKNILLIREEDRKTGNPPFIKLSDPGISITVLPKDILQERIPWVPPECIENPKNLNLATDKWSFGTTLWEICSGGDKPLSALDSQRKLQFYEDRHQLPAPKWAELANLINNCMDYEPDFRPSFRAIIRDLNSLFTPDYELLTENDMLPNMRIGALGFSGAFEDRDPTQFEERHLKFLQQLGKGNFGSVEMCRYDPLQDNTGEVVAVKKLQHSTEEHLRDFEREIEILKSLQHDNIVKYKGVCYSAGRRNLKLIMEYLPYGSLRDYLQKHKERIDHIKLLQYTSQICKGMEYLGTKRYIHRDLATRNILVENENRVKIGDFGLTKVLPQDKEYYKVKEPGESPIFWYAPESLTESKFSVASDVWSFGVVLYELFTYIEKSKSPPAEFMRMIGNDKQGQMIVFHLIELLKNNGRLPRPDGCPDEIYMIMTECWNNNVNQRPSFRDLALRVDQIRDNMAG
Chain of Fes (P07332 whole entry, looked up): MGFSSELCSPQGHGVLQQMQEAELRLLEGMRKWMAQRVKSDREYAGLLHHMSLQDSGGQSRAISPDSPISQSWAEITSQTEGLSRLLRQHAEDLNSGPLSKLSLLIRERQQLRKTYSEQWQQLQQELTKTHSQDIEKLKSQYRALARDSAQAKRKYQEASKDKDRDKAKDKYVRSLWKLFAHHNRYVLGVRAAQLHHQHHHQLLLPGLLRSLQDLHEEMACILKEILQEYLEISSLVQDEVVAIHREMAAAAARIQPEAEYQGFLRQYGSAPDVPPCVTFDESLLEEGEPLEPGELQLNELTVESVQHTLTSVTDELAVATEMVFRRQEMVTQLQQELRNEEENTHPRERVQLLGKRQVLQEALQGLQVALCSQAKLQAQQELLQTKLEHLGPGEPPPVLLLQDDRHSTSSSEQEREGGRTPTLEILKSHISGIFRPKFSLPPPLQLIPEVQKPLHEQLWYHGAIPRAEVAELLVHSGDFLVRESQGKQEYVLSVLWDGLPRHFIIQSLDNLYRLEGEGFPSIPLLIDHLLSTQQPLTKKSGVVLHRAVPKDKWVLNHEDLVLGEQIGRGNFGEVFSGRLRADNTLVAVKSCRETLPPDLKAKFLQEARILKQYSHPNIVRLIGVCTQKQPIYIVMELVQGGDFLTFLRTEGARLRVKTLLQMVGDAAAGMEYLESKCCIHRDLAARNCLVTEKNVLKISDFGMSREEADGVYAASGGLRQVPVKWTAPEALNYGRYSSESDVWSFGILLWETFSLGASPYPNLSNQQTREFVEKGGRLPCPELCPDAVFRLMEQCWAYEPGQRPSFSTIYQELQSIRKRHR
Chain of Hck (P08631 whole entry, looked up): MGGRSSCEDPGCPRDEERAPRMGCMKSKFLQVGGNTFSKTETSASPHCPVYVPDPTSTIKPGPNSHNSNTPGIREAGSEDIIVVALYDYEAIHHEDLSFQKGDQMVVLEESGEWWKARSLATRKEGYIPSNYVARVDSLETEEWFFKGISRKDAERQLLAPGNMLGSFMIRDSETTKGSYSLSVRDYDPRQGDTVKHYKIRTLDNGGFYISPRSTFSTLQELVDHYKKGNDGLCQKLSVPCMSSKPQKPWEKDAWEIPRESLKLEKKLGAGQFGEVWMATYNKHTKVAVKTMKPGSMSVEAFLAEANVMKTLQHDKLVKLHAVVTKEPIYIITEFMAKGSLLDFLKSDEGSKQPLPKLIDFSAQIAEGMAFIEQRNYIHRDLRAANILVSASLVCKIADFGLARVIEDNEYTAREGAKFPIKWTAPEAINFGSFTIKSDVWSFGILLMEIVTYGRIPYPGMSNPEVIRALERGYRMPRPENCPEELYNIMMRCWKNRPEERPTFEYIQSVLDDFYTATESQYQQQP

| SH2 binding enrichment (SHP2-C SH2) | SH2 binding enrichment (Grb2 SH2) | SH2 binding enrichment (c-Src SH2) | Sequence | phosphorylation enrichment (FGFR1) | phosphorylation enrichment (EPHB1) | phosphorylation enrichment (Hck) | phosphorylation enrichment (Fyn) | phosphorylation enrichment (Fes) | phosphorylation enrichment (MERTK) | phosphorylation enrichment (c-Src) | phosphorylation enrichment (FGFR3) | phosphorylation enrichment (AncSZ) | phosphorylation enrichment (EPHB2) | phosphorylation enrichment (Jak2) | phosphorylation enrichment (c-Abl (mouse)) | phosphorylation enrichment (Fer (mouse)) |
| --- | --- | --- | --- | --- | --- | --- | --- | --- | --- | --- | --- | --- | --- | --- | --- | --- |
| 1.08 | 0.897 | 0.957 | MCITQYKRESQ [PRNP_Y218_E219K] | 0.443 | 0.384 | 0.433 | 0.519 | 0.837 | 0.475 | 0.42 | 0.606 | 0.875 | 0.587 | 0.736 | 0.454 | 0.501 |
| 0.715 | 0.835 | 0.522 | VLTSKYHGGGG [HBA1_Y141_R142H] | 0.772 | 0.336 | 0.391 | 0.364 | 0.549 | 0.494 | 0.407 | 0.304 | 0.475 | 0.365 | 0.509 | 0.617 | 0.315 |
| 1.35 | 0.752 | 3.85 | NVDGKYSYLKV [GRM3_Y478_G475D] | 0.563 | 0.569 | 0.554 | 0.444 | 0.878 | 0.559 | 0.432 | 0.507 | 0.705 | 0.59 | 0.825 | 0.557 | 0.515 |
| 0.697 | 0.862 | 0.76 | YQLENYCNGGG [INS_Y108] | 0.536 | 0.686 | 0.568 | 0.57 | 0.812 | 0.426 | 0.455 | 0.477 | 0.768 | 0.572 | 0.461 | 0.473 | 0.55 |
| 0.713 | 0.887 | 0.569 | GIVEDYRPPFC [ACVRL1_Y421_Y426C] | 0.598 | 0.511 | 0.406 | 0.492 | 1.01 | 0.451 | 0.517 | 0.599 | 0.994 | 0.532 | 0.883 | 0.782 | 0.437 |
| 1.84 | 0.826 | 2.86 | LEAVSYSSPYA [RNLS_Y190_R193P] | 0.697 | 0.818 | 1.07 | 0.864 | 1.03 | 0.627 | 1.12 | 0.987 | 1.81 | 0.936 | 1.51 | 2.02 | 0.714 |
| 0.791 | 1.05 | 0.99 | ITNHIYTWVDP [DFNB31_Y234_V229I] | 3.64 | 2.92 | 2.66 | 4.11 | 1.97 | 8.78 | 4.2 | 2.95 | 2.4 | 1.62 | 1.06 | 0.832 | 9.75 |
| 0.639 | 0.904 | 0.56 | DFFDLYGGEKF [PTPN11_Y66_YF] | 0.523 | 0.569 | 3.08 | 2.12 | 1 | 0.441 | 2.79 | 0.629 | 0.912 | 0.525 | 1.06 | 0.967 | 0.682 |
